The source of these data is patent US20210380675A1 (Kyowa Kirin, published 2021).

Assay [1] deals with T1, human IL-36α(R12), truncated (human, UniProt Q9UHA7 6-158).
T1 chain: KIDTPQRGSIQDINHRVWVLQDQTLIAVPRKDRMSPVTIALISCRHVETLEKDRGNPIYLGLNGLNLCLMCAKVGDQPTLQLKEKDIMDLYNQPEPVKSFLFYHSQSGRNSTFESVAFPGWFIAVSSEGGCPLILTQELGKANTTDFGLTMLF
In words: cell-based or functional assay.

The target in assay [2] is T2, cynomolgus IL-36α, truncated (cynomolgus macaque (Macaca fascicularis), UniProt Q9UHA7 14-158 (human entry), limits assumed).
T2 chain: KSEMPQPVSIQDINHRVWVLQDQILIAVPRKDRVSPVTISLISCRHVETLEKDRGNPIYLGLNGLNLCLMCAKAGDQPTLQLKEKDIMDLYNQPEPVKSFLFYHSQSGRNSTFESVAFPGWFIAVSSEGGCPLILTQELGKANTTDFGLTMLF
The assay is described as follows: cell-based or functional assay.

Assay [3] deals with T3, human IL-36γ, truncated (human, UniProt Q9NZH8 18-169).
T3 sequence: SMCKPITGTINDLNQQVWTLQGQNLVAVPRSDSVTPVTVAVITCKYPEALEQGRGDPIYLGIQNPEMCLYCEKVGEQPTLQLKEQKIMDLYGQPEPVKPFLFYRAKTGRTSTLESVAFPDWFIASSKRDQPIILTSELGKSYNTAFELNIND
In words: cell-based or functional assay.

The target of assay [4] is T4, cynomolgus IL-36γ, truncated (cynomolgus macaque (Macaca fascicularis), UniProt Q9NZH8 18-167 (human entry), limits assumed).
T4 chain: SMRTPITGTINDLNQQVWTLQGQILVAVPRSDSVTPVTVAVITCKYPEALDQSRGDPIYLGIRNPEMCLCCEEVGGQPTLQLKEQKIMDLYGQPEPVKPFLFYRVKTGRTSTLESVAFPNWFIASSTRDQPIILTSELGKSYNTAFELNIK
In words: cell-based or functional assay.

For assay [5], the target named is T5, human IL-36α(Q12), truncated (human, UniProt Q9UHA7 6-158).
T5 construct: Untagged after removal of the His-SUMO tag
T5 sequence: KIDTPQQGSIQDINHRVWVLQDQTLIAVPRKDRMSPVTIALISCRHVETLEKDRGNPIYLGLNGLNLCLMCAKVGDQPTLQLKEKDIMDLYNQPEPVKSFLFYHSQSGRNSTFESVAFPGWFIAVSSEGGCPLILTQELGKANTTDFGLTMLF
The assay is described as follows: SPR, Biacore T200, antibody on chip, IL-36 as analyte, 1:1 Langmuir fit. As for the experimental part: (§1) Antibodies were further tested for their binding to recombinant human or cynomolgus IL36α, IL-36γ in Biacore assays. In order to kinetically analyze the binding activity of the IL-36α and IL-36γ dual antagonist antibodies, the binding activity to human and cynomolgus IL-36α and IL-36γ was measured by surface plasmon resonance method (SPR). All of the following manipulations were carried out using a Biacore T200 (GE Healthcare Life Sciences, Pittsburgh, Pa.).
(§2) To determine antibody affinity to human and cynomolgus IL36, recombinant antibodies were immobilized on a CM5 sensor chip (cat# BR100012, GE Healthcare Life Sciences, Pittsburgh, Pa.) by an amine coupling chemistry. In particular, the kinetic assay was carried out by immobilizing on the chip approximately 2000 RU of recombinant antibody. Thereafter, recombinant human or cynomolgus IL36 proteins, serially diluted from a high concentration, were allowed to run at a flow rate of 30 μL/min onto the chip for 420 seconds. The dissociation time was 3600 seconds and the binding curves were measured at 25° C. Regeneration was performed with 10 mM glycine pH 1.5 for 30s. Alternatively, the analytes were injected with increasing concentrations in a single cycle, the surface not being regenerated between injections, using a method referred to as “single cycle kinetics.” In particular, either anti-human or anti-mouse Fc specific antibodies were immobilized on a CM5 sensor chip (cat# BR100012, GE Healthcare Life Sciences, Pittsburgh, Pa.) by an amine coupling chemistry. Thereafter, IL-36α and IL-36γ dual antagonist mouse/human chimeric or mouse antibodies were captured at approximately 200 RUs, followed by injections of increasing concentrations of recombinant human and cynomolgus IL36 proteins. The association time was 300 seconds, and the final dissociation time was 1200 seconds. At the end of the analyte injections, the surface was regenerated with either 3M MgCl₂ (anti-human Fc capture antibody) for 30 s or 10 mM glycine-HCl pH 1.7 for 180 s (anti-mouse IgG capture antibody).
(§3) The raw data were double referenced by subtraction of the signals from a reference flow cell without immobilized ligand and a buffer blank. The sensorgram corresponding to each concentration was obtained.

In assay [6] the target is T3, human IL-36γ, truncated. The assay is described as follows: cell-based or functional assay. This is another data set of the same source.
The target in assay [7] is T1, human IL-36α(R12), truncated. In words: cell-based or functional assay.
Assay [8] has the same target. The assay is described as follows: SPR, Biacore T200, antibody on chip, IL-36 as analyte, 1:1 Langmuir fit. As for the experimental part:
as §1, §2, §3

Assay [9] has as its target T3, human IL-36γ, truncated. The description is as above. The procedure: as §1, §2, §3
The target in assay [10] is T1, human IL-36α(R12), truncated. The assay is described as follows: SPR, Biacore, 1:1 Langmuir fit. The procedure:
(§4) The humanized antibodies obtained in Example 6 were tested for their binding to recombinant human or cynomolgus macaque IL36a and IL-36γ in Biacore assays. The association time was set to 60 seconds, and the final dissociation time was set to 600 seconds. Equilibrium dissociation constant KD (kd/ka) of exemplary antibodies was determined using a 1:1 Langmuir fit model (see Tables 17-18 below).

Assay [11] concerns the target T3, human IL-36γ, truncated. The assay is described as follows: SPR, Biacore, 1:1 Langmuir fit. The procedure:
as §4

The target in assay [12] is T2, cynomolgus IL-36α, truncated. The assay is described as follows: SPR, Biacore, 1:1 Langmuir fit. The procedure: as §4
In assay [13] the target is T4, cynomolgus IL-36γ, truncated. The assay is described as follows: SPR, Biacore, 1:1 Langmuir fit. As for the experimental part: as §4
Assay [14] has as its target T1, human IL-36α(R12), truncated. The assay is described as follows: SPR, Biacore, 1:1 Langmuir fit; heads of c3 and c4 printed swapped. The procedure: as §4
In assay [15] the target is T3, human IL-36γ, truncated. The description is as above. As for the experimental part:
as §4

The target of assay [16] is T2, cynomolgus IL-36α, truncated. The description is as above. As for the experimental part: as §4
The target of assay [17] is T4, cynomolgus IL-36γ, truncated. The assay is described as above. As for the experimental part:
as §4

B1: m/h 144J171G (antibody, human IgG1, lambda, V domains shown)
VH: EVQLQQSGAELVEPGASVKLSCTASGFNIKDTYINWVKQRPEQGLEWIGRIDPANGYTRYAPKFQGKATITSDTSSNTAYLQLSSLTSEDAAVYSCSTLNYYGSSFFFDFWGQGTTLTVSS
VL: QAVVTQESALTTSPGETVTLTCRSSTGAVTTSNYANWVQEKPDHLFTGLIGGTNNRAPGVPARFSGSLIGDKAALTITGAQTEDEAIYFCALWYSNHWVFGGGTKLTVLG
notes: Mouse VH/VL joined to human IgG1 constant and human Ig lambda (IGLC2) constant; also called chimeric mouse/human 144J171G
For the molecule B1, in [1], the “IC50 of IL-8 secretion, HaCaT, 10 nM human IL-36α, FIG. 1B” value worked out at 39.2 nM. Further, the “IC50 of IL-8 secretion, HaCaT, 10 nM cynomolgus IL-36α, FIG. 2A” value in [2] is 19.3 nM. In addition, in the assay with human IL-36γ, truncated [3], the “IC50 of IL-8 secretion, HaCaT, 10 nM human IL-36γ, FIG. 1E” value was 19.4 nM. Further, the “IC50 of IL-8 secretion, HaCaT, 10 nM cynomolgus IL-36γ, FIG. 2C” value in assay [4] turned out to be 44.4 nM. In assay [5], this molecule yielded a Kd of 7.01 nM, a koff of 0.00868 s⁻¹ and an association rate constant (kon) of 1.24e+06 M⁻¹ s⁻¹.

B2: 144J171G (antibody, V domains shown)
VH: EVQLQQSGAELVEPGASVKLSCTASGFNIKDTYINWVKQRPEQGLEWIGRIDPANGYTRYAPKFQGKATITSDTSSNTAYLQLSSLTSEDAAVYSCSTLNYYGSSFFFDFWGQGTTLTVSS
VL: QAVVTQESALTTSPGETVTLTCRSSTGAVTTSNYANWVQEKPDHLFTGLIGGTNNRAPGVPARFSGSLIGDKAALTITGAQTEDEAIYFCALWYSNHWVFGGGTKLTVL
In the case of B2, the “IC50 of IL-8 secretion, HaCaT, 10 nM human IL-36α, FIG. 1B” value in assay [1] came out at 27 nM. Further, the “IC50 of IL-8 secretion, HaCaT, 10 nM cynomolgus IL-36α, FIG. 2A” value in assay [2] is 16.8 nM. The “IC50 of IL-8 secretion, HaCaT, 10 nM human IL-36γ, FIG. 1E” value with human IL-36γ, truncated [3] came to 19.2 nM. Besides, the “IC50 of IL-8 secretion, HaCaT, 10 nM cynomolgus IL-36γ, FIG. 2C” value in assay [4] is 82.7 nM. Moreover, the “IC50 of IL-8 secretion, primary human monocytes, 50 nM human IL-36γ, FIG. 5D” value with human IL-36γ, truncated [6] stood at 113 nM.

B3: m/h 144L249B (antibody, human IgG1, lambda, V domains shown)
VH: EVQLQQSGAELVKPGASVKLSCTASGFNIKDTYIYWVKQRPEQGLEWIGRIDPAIGTTRYDPKFQGKATLTADTSSNTAFLQLSSLTSEDTAVYYCARYDYSGSSFYFDYWGRGTTLTVSS
VL: QAVVTQESALTTSPGETVTLTCRSSTGAVTTSNYANWVQEKPDHLFTGLIGGTNNRAPGVPARFSGSLIGDKAALTITGAQTEDEAIYFCALWYSNHLVFGGGTKLTVLG
notes: Mouse VH/VL joined to human IgG1 constant and human Ig lambda (IGLC2) constant; also called chimeric mouse/human 144L249B
With B3, the “IC50 of IL-8 secretion, primary human monocytes, 40 nM human IL-36α, FIG. 5B” value in assay [7] is 38.3 nM. Further, in assay [5], binding was put at a Kd of 1.02 nM, the koff turned out to be 0.000825 s⁻¹ and the kon amounted to 805000 M⁻¹ s⁻¹.

B4: m/h 144D666C (antibody, human IgG1, lambda, V domains shown)
VH: EVQLQQSGAELVKPGASVKLTCTASGFNIKDTYIYWVKQRPAQGLEWIGRIDPANAYTKFDPKFQGKATLTADTSSNTAYLQLSSLTSEDTAVYYCTRFHWYGSSFFFDYWGQGTTLTVSS
VL: QAVVTQESALTTSPGETVTLTCRSSTGAVTTSNYANWVQEKPDHLFTGLIGGTDNRPPGVPARFSGSLIGDKAALTITGAQTEDEAIYFCALWYSNLWVFGGGTKLTVLG
notes: Mouse VH/VL joined to human IgG1 constant and human Ig lambda (IGLC2) constant; also called chimeric mouse/human 144D666C
On to B4, for which, in the assay with human IL-36γ, truncated [6], the “IC50 of IL-8 secretion, primary human monocytes, 6 nM human IL-36γ, FIG. 5C” value stood at 9.02 nM and the “IC50 of IL-8 secretion, primary human monocytes, 50 nM human IL-36γ, FIG. 5D” value was determined as 38.1 nM. In assay [8], this molecule gave an equilibrium dissociation constant (Kd) of 25.1 nM, a dissociation rate constant (koff) of 0.00219 s⁻¹ and a kon of 87300 M⁻¹ s⁻¹. In addition, in assay [5], binding was characterised by a dissociation constant (Kd) of 1.75 nM, the koff was 0.000834 s⁻¹ and the kon is 476000 M⁻¹ s⁻¹. In the assay with human IL-36γ, truncated [9], this molecule came in with a Kd of 3.06 nM, a koff of 0.000342 s⁻¹ and an association rate constant (kon) of 112000 M⁻¹ s⁻¹.

B5: 144D464A LV10re HV10b (antibody, V domains shown)
VH: QVQLVQSGAEVKKPGASVKVSCKASGFNIKDTYIHWVRQAPGQGLEWIGRIDPAIGTTRYDPKFQGRATITTDTSTSTVYLEFSSLRSEDTAVYYCARLHYFGNNFFFDYWGQGTLVTVSS
VL: QAVVTQEPSLTVSPGGTVTLTCRSSSGAVTTSNYANWVQEKPGQLFAGLIGGTNDRAPGVPARFSGSLLGGKAALTLSGAQPEDEAIYFCALWFSNHWVFGGGTKLTVL
notes: Humanized
In the case of B5, the equilibrium dissociation constant (Kd) in assay [10] came out at 1.87 nM; with human IL-36γ, truncated [11], 1.2 nM; in assay [12] it was 1.12 nM; in assay [13], 1.02 nM. The koff was 0.000429 s⁻¹ in assay [14]; 0.000425 s⁻¹ with human IL-36γ, truncated [15]; 0.000415 s⁻¹ in [16]; 0.00047 s⁻¹ in assay [17]. For the same molecule, the kon in assay [14] is 229000 M⁻¹ s⁻¹; in the assay with human IL-36γ, truncated [15] it was 353000 M⁻¹ s⁻¹; in assay [16], 372000 M⁻¹ s⁻¹; in assay [17] it was 460000 M⁻¹ s⁻¹.

B6: 144D464A LV11re HV10b (antibody, V domains shown)
VH: QVQLVQSGAEVKKPGASVKVSCKASGFNIKDTYIHWVRQAPGQGLEWIGRIDPAIGTTRYDPKFQGRATITTDTSTSTVYLEFSSLRSEDTAVYYCARLHYFGNNFFFDYWGQGTLVTVSS
VL: QAVVTQEPSLTVSPGGTVTLTCRSSSGAVTTSNYANWVQEKPGQLFAGLIGGTNDRAPGVPARFSGSLLGGKAALTISGAQPEDEAIYFCALWFSNHWVFGGGTKLTVL
notes: Humanized
As to B6, the Kd in [10] worked out at 1.86 nM; with human IL-36γ, truncated [11], 1.21 nM; in [12], 1.1 nM; in assay [13], 1.04 nM. Also, the off-rate (koff) came to 0.000422 s⁻¹ in [14]; 0.00042 s⁻¹ with human IL-36γ, truncated [15]; 0.000407 s⁻¹ in assay [16]; 0.000463 s⁻¹ in assay [17]. The kon in assay [14] came out at 226000 M⁻¹ s⁻¹; with human IL-36γ, truncated [15] it was 346000 M⁻¹ s⁻¹; in [16], 369000 M⁻¹ s⁻¹; in assay [17] it was 446000 M⁻¹ s⁻¹.
